Data: US20250186580A1 (TRIDEM BIOSCIENCE, published 2025)

Target: Menveo, Neisseria meningitidis oligosaccharide (A, C, W135, Y) CRM197 conjugate vaccine, without β-glucan … (UniProt P00588 33-567)
Assay: competitive ELISA, soluble murine Fc-dectin-1a on coated glucan

B1: soluble murine Fc-dectin-1a receptor (InvivoGen) (Fc fusion)
chain: EYGHNSGRNPEEKDNFLSRNKENHKPTESSLDEKVAPSKASQTTGGFSQPCLPNWIMHGKSCYLFSFSGNSWYGSKRHCSQLGAHLLKIDNSKEFEFIESQTSSHRINAFWIGLSRNQSEGPWFWEDGSAFFPNSFQVRNTAPQESLLHNCVWIHGSEVYNQICNTSSYSICEKEL
B1: no binding.
